Molecular target: Bombyx mori ribosomal protein RPL12 (Bombyx mori (endogenous in BmN))
Assay: Western blot of total cell proteins; total proteins of BmN cells (mock, control siRNA, BmRPL12 siRNA), anti-RPL12 polyclonal antibody; monomer and dimer bands

stoichiometry N: 2
Substance: Bombyx mori ribosomal protein RPL12 (natural protein)

Reference: publication PMC11856044
